Force on a streptavidin bead coated directly with a saturating amount of biotinylated EB3 dimers, optical trap, fluorescence recovery time and fold slower turnover data for two substances are collected here from publication PMC11564643.

Assay [1] addresses dynamic microtubules grown from GMPCPP stabilized seeds (porcine brain tubulin) (porcine) (UniProt P02550).
The target is the same in assay [2]. Put plainly: FRAP (TIRF microscopy on dynamic microtubules); set-up of the buckling experiment; EB3 and HSET bleached together (488 and 561 nm lasers at 100% for 50 frames), recovery followed at free tips and in antiparallel overlaps.

The substance “biotinylated EB3 dimers coupled directly to streptavidin beads (from UniProt Q9UPY8 1-281) (natural protein)” displayed a force on a streptavidin bead coated directly with a saturating amount of biotinylated EB3 dimers, optical trap at a growing microtubule tip in assay [1] of 0.5 pN. On to “mGFP-EB3 homodimer (from UniProt Q9UPY8 1-281) (natural protein)”, for which, in assay [2], the fluorescence recovery time at single microtubule tips (in the presence of HSET) is 6 s and the fold slower turnover at tips in antiparallel overlaps (with HSET) against single tips was 3 fold.
